By Kd is commonly meant a measure of binding affinity in units of concentration.

Numbered stars: 1 amine (or outer) side, 2 acyl side, 3 side chain; on linkers, the order of the positions; unused ones are H or OH. Bridge positions count the residues as written; N and C are the ends. Square brackets hold non-standard residues; d marks the D form. Primed or numbered codes have the meaning given here. Qglucamine = (2S)-2-amino-4-{[(2S,3R,4R,5R)-2,3,4,5,6-pentahydroxyhexyl]carbamoyl}butanoic acid, O=C(CC[C@H](N[*:1])C(=O)[*:2])NC[C@H](O)[C@@H](O)[C@H](O)[C@H](O)CO; KCOpipzaa″ = (2S)-2-amino-6-{[4-(carboxymethyl)piperazine-1-carbonyl]amino}hexanoic acid, O=C(NCCCC[C@H](N[*:1])C(=O)[*:2])N1CCN(CC(=O)[*:3])CC1; Hgn″ = (2S)-2-amino-5-carbamoylpentanoic acid (homoglutamine), NC(=O)CCC[C@H](N[*:1])C(=O)[*:2]; Hgn(3) = 2-amino-5-carbamoylpentanoic acid (homoglutamine), NC(=O)CCC[C@H](N[*:1])C(=O)[*:2]; Hgn = (2S)-2-amino-5-carbamoylpentanoic acid, NC(=O)CCC[C@H](N[*:1])C(=O)[*:2]; Trp(1-Me,7-Cl) = Cn1cc(C[C@H](N)C(=O)O)c2cccc(Cl)c21; dPhe(3-CONH2) = NC(=O)c1cccc(C[C@@H](N)C(=O)O)c1; Trp(1-Me) = Cn1cc(C[C@H](N)C(=O)O)c2ccccc21; NMe3Pal = CN[C@@H](Cc1cccnc1)C(=O)O; NMeF = CN[C@@H](Cc1ccccc1)C(=O)O; hArg = N=C(N)NCCCC[C@H](N)C(=O)O; hCit = NC(=O)NCCCC[C@H](N)C(=O)O; Gly(cBu) = N[C@H](C(=O)O)C1CCC1; NMeE = CN[C@@H](CCC(=O)O)C(=O)O

The target in this assay is T1, Recombinant Human EphA2 Fc Protein (Fc tag, Elabscience) (human, UniProt P29317 24-534).
T1 construct: Bought protein (Elabscience), captured with the Human Antibody Capture kit; also called hEphA2; not shown: Fc tag of the commercial protein
The experiment in a line: SPR Biacore T200, EphA2-Fc captured, single-cycle kinetics; grade, legend 0 < A ≤ 1 nM. The protocol: The HBS-P+ buffer (10 mM HEPES (pH7.4), 150 mM NaCl, 0.05% (v/V) Surfactant P20) containing 1% DMSO was used as running buffer. Recombinant Human EphA2 Fc Protein (Fc tag, Elabscience) was captured by Human Antibody Capture kit (Cytiva). Peptide samples in DMSO were diluted with running buffer, and prepared five serial dilutions. Using these serial dilutions, kinetics of peptides against EphA2 was measured at a flow rate of 30 mL/min at 25° C. The method adopted for sample measurement was a single-cycle kinetics method. The analysis was conducted using the evaluation software 3.0 provided with Biacore T200. Kinetics fitting was done on the difference data obtained by subtracting the baseline data from sample measurement data. KD values were calculated based on the association rate constant (ka) and dissociation rate constant (kd).
(In general: Surface plasmon resonance follows binding to a sensor surface in real time, without labels.)

T1 sequence (P29317 24-534 limits assumed): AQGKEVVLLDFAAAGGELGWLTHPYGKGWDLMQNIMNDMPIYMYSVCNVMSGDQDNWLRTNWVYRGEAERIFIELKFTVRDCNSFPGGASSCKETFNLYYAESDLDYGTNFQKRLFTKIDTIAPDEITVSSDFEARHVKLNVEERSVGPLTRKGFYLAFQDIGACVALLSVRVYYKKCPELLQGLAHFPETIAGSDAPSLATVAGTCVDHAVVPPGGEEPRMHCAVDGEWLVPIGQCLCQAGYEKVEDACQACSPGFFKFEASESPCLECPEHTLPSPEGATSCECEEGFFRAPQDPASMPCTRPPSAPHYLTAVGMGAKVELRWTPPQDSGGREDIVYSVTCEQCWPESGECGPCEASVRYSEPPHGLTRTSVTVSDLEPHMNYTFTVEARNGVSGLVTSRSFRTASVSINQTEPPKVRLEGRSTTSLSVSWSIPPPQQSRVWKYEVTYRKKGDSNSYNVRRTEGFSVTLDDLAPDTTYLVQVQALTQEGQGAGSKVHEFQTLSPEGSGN

As to {CH2CO}-[dPhe(3-CONH2)][NMeF]N[Gly(cBu)][Hgn(3)][NMeE][Trp(1-Me,7-Cl)][hCit][Trp(1-Me)]T[hArg]C-NH2 (thioether N-12) [PDC_EphA2-00019427], the Kd is at most 1 nM.

B1: PDC_EphA2-00019438 (peptide)
peptide: {CH2CO}-[dPhe(3-CONH2)][NMe3Pal]N[Gly(cBu)][Hgn″][NMe3Pal][Trp(1-Me,7-Cl)][KCOpipzaa″][Trp(1-Me)]T[Hgn″]C-NH2
modifications: thioether N-12
SMILES: C[C@@H](O)[C@@H]1NC(=O)[C@H](Cc2cn(C)c3ccccc23)NC(=O)[C@H](CCCCNC(=O)N2CCN(CC(=O)O)CC2)NC(=O)[C@H](Cc2cn(C)c3c(Cl)cccc23)NC(=O)[C@H](Cc2cccnc2)N(C)C(=O)[C@H](CCCC(N)=O)NC(=O)[C@H](C2CCC2)NC(=O)[C@H](CC(N)=O)NC(=O)[C@H](Cc2cccnc2)N(C)C(=O)[C@@H](Cc2cccc(C(N)=O)c2)NC(=O)CSC[C@@H](C(N)=O)NC(=O)[C@H](CCCC(N)=O)NC1=O
For B1, the Kd was at most 1 nM.

B2: PDC_EphA2-00019437 (peptide)
peptide: {CH2CO}-[dPhe(3-CONH2)][NMe3Pal]N[Gly(cBu)][Hgn][NMe3Pal][Trp(1-Me,7-Cl)][Qglucamine][Trp(1-Me)]T[Hgn]C-NH2
modifications: thioether N-12
SMILES: C[C@@H](O)[C@@H]1NC(=O)[C@H](Cc2cn(C)c3ccccc23)NC(=O)[C@H](CCC(=O)NC[C@H](O)[C@@H](O)[C@H](O)[C@H](O)CO)NC(=O)[C@H](Cc2cn(C)c3c(Cl)cccc23)NC(=O)[C@H](Cc2cccnc2)N(C)C(=O)[C@H](CCCC(N)=O)NC(=O)[C@H](C2CCC2)NC(=O)[C@H](CC(N)=O)NC(=O)[C@H](Cc2cccnc2)N(C)C(=O)[C@@H](Cc2cccc(C(N)=O)c2)NC(=O)CSC[C@@H](C(N)=O)NC(=O)[C@H](CCCC(N)=O)NC1=O
Take B2: the Kd is at most 1 nM.
